B1: IL-12: cytokine used to stimulate NK cells ex vivo (protein, UniProt P29459 23-219; P29460 23-328, looked up)
Interleukin-12 subunit alpha: RNLPVATPDPGMFPCLHHSQNLLRAVSNMLQKARQTLEFYPCTSEEIDHEDITKDKTSTVEACLPLELTKNESCLNSRETSFITNGSCLASRKTSFMMALCLSSIYEDLKMYQVEFKTMNAKLLMDPKRQIFLDQNMLAVIDELMQALNFNSETVPQKSSLEEPDFYKTKIKLCILLHAFRIRAVTIDRVMSYLNAS
Interleukin-12 subunit beta: IWELKKDVYVVELDWYPDAPGEMVVLTCDTPEEDGITWTLDQSSEVLGSGKTLTIQVKEFGDAGQYTCHKGGEVLSHSLLLLHKKEDGIWSTDILKDQKEPKNKTFLRCEAKNYSGRFTCWWLTTISTDLTFSVKSSRGSSDPQGVTCGAATLSAERVRGDNKEYEYSVECQEDSACPAAEESLPIEVMVDAVHKLKYENYTSSFFIRDIIKPDPPKNLQLKPLKNSRQVEVSWEYPDTWSTPHSYFSLTFCVQVQGKSKREKKDRVFTDKTSATVICRKNASISVRAQDRYYSSSWSEWASVPCS
B2: IL-2: mouse IL-2 cytokine used to stimulate splenic NK cells (protein, UniProt P04351 21-169, looked up)
Interleukin-2: APTSSSTSSSTAEAQQQQQQQQQQQQHLEQLLMDLQELLSRMENYRNLKLPRMLTFKFYLPKQATELKDLQCLEDELGPLRHVLDLTQSKSFQLEDAENFISNIRVTVVKLKGSDNTFECQFDDESATVVDFLRRWIAFCQSIISTSPQ
B3: IL-15: mouse IL-15 cytokine used to stimulate splenic NK cells (protein, UniProt P48346 49-162, looked up)
Interleukin-15: NWIDVRYDLEKIESLIQSIHIDTTLYTDSDFHPSCKVTAMNCFLLELQVILHEYSNMTLNETVRNVLYLANSTLSSNKNVAESGCKECEELEEKTFTEFLQSFIRIVQMFINTS

Experiments:
[1] = system: STAT5; test: Fli1 protein by western blot in IL-15-stimulated splenic NK cells with STAT5 inhibitor or vehicle; assay type: cell-based, mouse; conditions: 100 μM inhibitor vs vehicle control (DMSO)
Experimental: (§1) For plate-bound antibody stimulation experiments, ˜5×10^5 isolated NK cells were stimulated with […] precoated antibody against NK1.1 (PK136) for 4 hours in complete media containing Brefeldin A (1:1000; BioLegend) and Monensin (2 uM; BioLegend). Cells were cultured in media alone as a negative control. In cytokine stimulation experiments, isolated NK cells were incubated with various concentrations of mouse IL-15 or IL-2, in the presence or absence of 100 μM CAS 285986-31-4 STAT5 inhibitor (Millipore Sigma).
(§2) Protein was extracted from enriched primary splenic NK cells using Pierce RIPA buffer (Thermo-Fisher) with Halt protease inhibitor cocktail (Thermo-Fisher) and protein concentration was quantified using the Pierce BCA Protein Assay kit (Thermo-Fisher). Samples were electrophoresed on NuPage Novex 4-12% Bis-Tris Protein Gels, transferred to PVDF membranes, and blocked for one hour at room temperature with 5% w/v nonfat milk in 1× TBS and 0.1% Tween-20. Immunoblots were performed using rabbit anti-Fli1 (Abcam ab133485), rabbit anti-β-actin (Cell Signaling CST4970), and rabbit anti-GAPDH (Millipore Sigma G9545). Proteins were detected using the SuperSignal West Pico PLUS ECL kit (Thermo-Fisher) and visualized using the Azure Biosystems c280 imager. Band density was quantified using ImageJ version 1.53.

[2] = system: splenic NK cells; conditions: 3 hours after cytokine stimulation ex vivo; published RNA-seq datasets (GSE140044); cited from earlier work
[3] = system: splenic NK cells; test: Fli1 protein by immunoblot of purified splenic NK cells cultured with IL-2 or IL-15; assay type: cell-based, mouse; conditions: for Fli1 protein induction: 48 h culture with increasing doses of cytokine
Experimental: as §1, §2

| Molecule | reduction of Fli1 protein [1] | Fli1 transcripts [2] | Fli1 protein induction [3] | Fli1 protein induced, IL-15 compared with IL-2 ([3]; 48 h culture, at each dose) |
| --- | --- | --- | --- | --- |
| O=C(N/N=C/c1coc2ccccc2c1=O)c1cccnc1 [STAT5 inhibitor] | ~50% |  |  |  |
| IL-18: cytokine used to stimulate NK cells ex vivo |  | decreased Fli1 expression |  |  |
| B1 |  | decreased Fli1 expression |  |  |
| B2 |  | induced Fli1 transcripts | induced by both IL-2 and IL-15 in a dose-dependent manner |  |
| B3 |  | induced Fli1 transcripts | induced by both IL-2 and IL-15 in a dose-dependent manner | more Fli1 protein than IL-2 at each dose |
